This note sets out measurements from EP4703388A1 (Jiangsu Hengrui Pharmaceuticals Co., Ltd., dated 2024).

Broadly, the EC50 is the midpoint of the concentration-response curve. As a reminder, the Kd is the constant that tells how readily two partners part at equilibrium. Usually koff stands for the rate constant with which the complex falls apart. One may read the kon as a measure of how fast the partners come together.

In test [1] the target is T1, human tissue factor (TF) on MDA-MB-231, NCI-H358 and HCT116 cells (human, UniProt P13726 33-295).
T1 construct: whole, on cells; also called TF antigen; CD142
Put plainly: flow cytometry on MDA-MB-231 cells. (Flow cytometry measures light scatter and fluorescence of single cells or particles in a stream.)

For test [2], the target named is T2, human TF ECD-His (hTF-his) (human, UniProt P13726 33-251).
T2 construct: also called bio-hTF-his; human TF-His protein
Put plainly: SPR Biacore T200, antibody on Protein A chip, TF-His as analyte, 1:1 model.

In test [3] the target is T3, cyno TF ECD-His (cTF-his) (monkey (cyno)).
T3 construct: also called bio-cTF-his; monkey TF-His protein
T3 chain: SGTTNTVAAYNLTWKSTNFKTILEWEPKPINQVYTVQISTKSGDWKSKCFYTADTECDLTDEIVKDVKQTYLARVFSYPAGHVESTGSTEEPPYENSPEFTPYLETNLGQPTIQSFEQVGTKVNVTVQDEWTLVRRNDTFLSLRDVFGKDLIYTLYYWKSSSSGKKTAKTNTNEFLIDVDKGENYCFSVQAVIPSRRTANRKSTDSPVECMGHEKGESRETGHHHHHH
The description is as above.

In test [4] the target is T1, human tissue factor (TF) on MDA-MB-231, …. Put plainly: flow cytometry on H358 cells.

B1: hu67-11 (antibody, human IgG1, kappa, V domains shown)
VH: EVQLQESGPGLVKPSQTLSLTCTVSGFSLTNYGVNWIRQPPGKGLEWIGVIWSRGNTDYNAAFISRVTISKDTSKNQVSLKLSSVTAADTAVYYCARKDAVVATDALDYWGQGTTVTVSS
VL: DIQMTQSPSSLSASVGDRVTITCKASQDVSTAVAWYQQKPGKAPKLLIYSTSYRYTGVPSRFSGSGSGTDFTFTISSLQPEDIATYYCQQHYSTPYTFGGGTKVEIKR
As for B1, in test [1], the EC50 worked out at 26.3 nM. For the same molecule, in test [2], binding was put at a Kd of 16.5 nM, the koff came out at 0.000675 s⁻¹ and the kon is 40900 M⁻¹ s⁻¹. In test [3], this molecule returned a Kd of 8.95 nM, a koff of 0.000243 s⁻¹ and a kon of 27100 M⁻¹ s⁻¹.

B2: hu310-15 (antibody, human IgG1, kappa, V domains shown)
VH: EVQLVQSGAEVKKPGASVKVSCKASGYSFTGYYMNWVRQAPGQGLEWMGEINPSTGGSTYNQKFKARVTLTVDQSTNTAYMELSSLRSEDTAVYYCARRELGGPFGYWGQGTTVTVSS
VL: SIQMTQSPSSLSASVGDRVTITCKASQSVSSGIAWYQQKPGKSPKLLIYFASNRYTGVPSRFSGSGYGTDFTFTISSLQPEDIATYYCQQDYSSPWTFGGGTKVEIKR
In turn, B2 showed a concentration for a half-maximal effect (EC50) in test [1] of 1.98 nM.

B3: hu310-14 (antibody, human IgG1, kappa, V domains shown)
VH: EVQLVQSGAEVKKPGASVKVSCKASGYSFTGYYMNWVRQAPGQGLEWMGEINPSTGGSTYNQKFKARVTLTVDQSTNTAYMELSSLRSEDTAVYYCARRELGGPFGYWGQGTTVTVSS
VL: SIQMTQSPSSLSASVGDRVTITCKASQSVSQGIAWYQQKPGKSPKLLIYFASNRYTGVPSRFSGSGYGTDFTFTISSLQPEDIATYYCQQDYSSPWTFGGGTKVEIKR
Molecule B3 displayed a concentration giving a half-maximal response (EC50) in test [1] of 1.76 nM.

B4: hu310-16 (antibody, human IgG1, kappa, V domains shown)
VH: EVQLVQSGAEVKKPGASVKVSCKASGYSFTGYYMNWVRQAPGQGLEWMGEINPSTGGSTYNQKFKARVTLTVDQSTNTAYMELSSLRSEDTAVYYCARRELGGPFGYWGQGTTVTVSS
VL: SIQMTQSPSSLSASVGDRVTITCKASQSVSTGIAWYQQKPGKSPKLLIYFASNRYTGVPSRFSGSGYGTDFTFTISSLQPEDIATYYCQQDYSSPWTFGGGTKVEIKR
In the case of B4, in test [1], the EC50 stood at 2.26 nM.

B5: hu310-13 (antibody, human IgG1, kappa, V domains shown)
VH: EVQLVQSGAEVKKPGASVKVSCKASGYSFTGYYMNWVRQAPGQGLEWMGEINPSTGGSTYNQKFKARVTLTVDQSTNTAYMELSSLRSEDTAVYYCARRELGGPFGYWGQGTTVTVSS
VL: SIQMTQSPSSLSASVGDRVTITCKASQSVSNGIAWYQQKPGKSPKLLIYFASNRYTGVPSRFSGSGYGTDFTFTISSLQPEDIATYYCQQDYSSPWTFGGGTKVEIKR
In test [1], B5 displayed a concentration giving a half-maximal response (EC50) of 1.39 nM.

B6: hu67Y118 (antibody, human IgG1, kappa, V domains shown)
VH: EVQLQESGPGLVKPSQTLSLTCTVSGFSLTNYGVNWIRQSPGKGLEWIGVIWSRGNTDYNAAFKSRVTISKDTSKNQVSLKLSSVTAADTAVYYCARKDAIVATDALDYWGQGTTVTVSS
VL: DIQMTQSPSSLSASVGDRVTITCKASQDVQTAVAWYQQKPGKAPKLLIYSTHYRYTGVPSRFSGSGSGTDFTFTISSLQPEDIATYYCLQLIGVPHTFGGGTKVEIKR
For B6, the response in test [1] was half-maximal at 7.05 nM (EC50).

B7: hu310-12 (antibody, human IgG1, kappa, V domains shown)
VH: EVQLVQSGAEVKKPGASVKVSCKASGYSFTGYYMNWVRQAPGQGLEWMGEINPSTGGSTYNQKFKARVTLTVDQSTNTAYMELSSLRSEDTAVYYCARRELGGPFGYWGQGTTVTVSS
VL: DIQMTQSPSSLSASVGDRVTITCKASQSVSNGIAWYQQKPGKAPKLLIYFASNRYTGVPSRFSGSGSGTDFTFTISSLQPEDIATYYCQQDYSSPWTFGGGTKVEIKR
On to B7, for which, in test [1], the EC50 stood at 1.95 nM.

B8: chimeric antibody CH310 (antibody, human IgG1, kappa, V domains shown)
VH: EVQLQQSGPELVKPGASLKISCKASGYSFTGYYMNWVKQSPEKSLEWIGEINPSTGGSTYNQKFKAKATLTVDQSSNTAYMQLKSLTSEDSAVYYCARRELGGPFGYWGQGTPVTVSA
VL: SIVMTQTPKFLLVSSGDRVTITCKASQSVSNGIAWYQQKPGQSPKLLIYFASNRYTGVPDRFTGSGYGTDFTFTISTVQAEDLAVYFCQQDYSSPWTFGGGTKLEIKR
notes: Murine 310# variable regions + human constant regions
B8 registered an EC50 in test [1] of 1.84 nM. In test [2], this molecule registered a Kd of 23.2 nM, a koff of 0.00949 s⁻¹ and an on-rate constant (kon) of 409000 M⁻¹ s⁻¹. In addition, in test [3], the Kd came out at 23.5 nM, the koff is 0.00767 s⁻¹ and the kon was 327000 M⁻¹ s⁻¹.

B9: hu10H10-33 (antibody, V domains shown)
VH: EVQLVQSGSELKKPGASVKVSCKASGYTFITYWIEWVKQRPGQGLEWMGDILPGSGSTNYNENFKGRATFSADTSVSTAYLQISSLKAEDTAVYYCARSGYYGNSGFAYWGQGTLVTVSS
VL: DIQMTQSPSSLSASVGDRVTITCKSSQSLLSSGNQKNYLTWYQQKPGKAPKLLIYWASTREEGVPSRFSGSGSGTDFTLTISSLQPEDFATYYCQNDYTYPLTFGQGTKLEIK
notes: H7+L3; Full-length IgG
B9: the EC50 in test [1] is 1.09 nM; in test [4], 0.96 nM.

B10: hu10H10-35 (antibody, V domains shown)
VH: EVQLVQSGSELKKPGASVKVSCKASGYTFRTYWIEWVKQRPGQGLEWMGDILPGSGSTNYNENFKGRATFSADTSVSTAYLQISSLKAEDTAVYYCARSGYYGNSGFAYWGQGTLVTVSS
VL: DIQMTQSPSSLSASVGDRVTITCKSSQSLLSSGNQKNYLTWYQQKPGKAPKLLIYWASTREEGVPSRFSGSGSGTDFTLTISSLQPEDFATYYCQNDYTYPLTFGQGTKLEIK
notes: H9+L3; Full-length IgG
Turning to B10, the values for the EC50 in test [1] and in test [4] were 1.09 nM and 0.79 nM, respectively.

B11: hu10H10-40 (antibody, V domains shown)
VH: EVQLVQSGSELKKPGASVKVSCKASGYTFITYWIEWVRQRPGQGLEWMGDILPGSGWTNYNENFKGRAVFSADTSVSTAYLQISSLKAEDTAVYYCARSGYYGNSGFAYWGQGTLVTVSS
VL: DIQMTQSPSSLSASVGDRVTITCKSSQSLLSSGNQKNYLTWYQQKPGKAPKLLIYWASTREEGVPSRFSGSGSGTDFTLTISSLQPEDFATYYCQNDYTYPLTFGQGTKLEIK
notes: H14+L3 (printed bu10H10-40); Full-length IgG; also called bu10H10-40
As for B11, the results for the EC50 in test [1] and in test [4] were 1.07 nM and 0.55 nM, respectively.

B12: hu10H10-36 (antibody, V domains shown)
VH: EVQLVQSGSELKKPGASVKVSCKASGYTFIEYWIEWVKQRPGQGLEWMGDILPGSGSTNYNENFKGRATFSADTSVSTAYLQISSLKAEDTAVYYCARSGYYGNSGFAYWGQGTLVTVSS
VL: DIQMTQSPSSLSASVGDRVTITCKSSQSLLSSGNQKNYLTWYQQKPGKAPKLLIYWASTREEGVPSRFSGSGSGTDFTLTISSLQPEDFATYYCQNDYTYPLTFGQGTKLEIK
notes: H10+L3; Full-length IgG
As to B12, the EC50 in test [1] is 2.14 nM; in test [4], 0.96 nM.

B13: hu10H10-37 (antibody, V domains shown)
VH: EVQLVQSGSELKKPGASVKVSCKASGYTFITYWIEWVKQRPGQGLEWMGDILPYSGSTNYNENFKGRATFSADTSVSTAYLQISSLKAEDTAVYYCARSGYYGNSGFAYWGQGTLVTVSS
VL: DIQMTQSPSSLSASVGDRVTITCKSSQSLLSSGNQKNYLTWYQQKPGKAPKLLIYWASTREEGVPSRFSGSGSGTDFTLTISSLQPEDFATYYCQNDYTYPLTFGQGTKLEIK
notes: H11+L3; Full-length IgG
As for B13, the EC50 in test [1] was 1.07 nM; in test [4], 0.35 nM.

B14: hu10H10-38 (antibody, V domains shown)
VH: EVQLVQSGSELKKPGASVKVSCKASGYTFITYWIEWVKQRPGQGLEWMGDILPGHGSTNYNENFKGRATFSADTSVSTAYLQISSLKAEDTAVYYCARSGYYGNSGFAYWGQGTLVTVSS
VL: DIQMTQSPSSLSASVGDRVTITCKSSQSLLSSGNQKNYLTWYQQKPGKAPKLLIYWASTREEGVPSRFSGSGSGTDFTLTISSLQPEDFATYYCQNDYTYPLTFGQGTKLEIK
notes: H12+L3; Full-length IgG
Turning to B14, the EC50 turned out to be 1.14 nM in test [1] and 0.81 nM in test [4].

B15: hu10H10-34 (antibody, V domains shown)
VH: EVQLVQSGSELKKPGASVKVSCKASGRTFITYWIEWVRQRPGQGLEWMGDILPGSGSTNYNENFKGRATFSADTSVSTAYLQISSLKAEDTAVYYCARSGYYGNSGFAYWGQGTLVTVSS
VL: DIQMTQSPSSLSASVGDRVTITCKSSQSLLSSGNQKNYLTWYQQKPGKAPKLLIYWASTREEGVPSRFSGSGSGTDFTLTISSLQPEDFATYYCQNDYTYPLTFGQGTKLEIK
notes: H8+L3; Full-length IgG
Turning to B15, the EC50 worked out at 1.12 nM in test [1] and 0.99 nM in test [4].

B16: hu10H10-58 (antibody, V domains shown)
VH: EVQLVQSGSELKKPGASVKVSCKASGYTFITYWIEWVRQRPGQGLEWMGDILPGSGSTNYNENFKGRAVFSADTSVSTAYLQISSLKAEDTAVYYCARSGYYGNSGFAYWGQGTLVTVSS
VL: DIQMTQSPSSLSASVGDRVTITCKSSQSLLSSSNQKNYLTWYQQKPGKAPKLLIYWASTREEGVPSRFSGSGSGTDFTLTISSLQPEDFATYYCQNDYTYPLTFGQGTKLEIK
notes: H2+L6; Full-length IgG
Turning to B16, the values for the EC50 in test [1] and in test [4] were 1.43 nM and 1.09 nM, respectively.

B17: hu10H10-57 (antibody, V domains shown)
VH: EVQLVQSGSELKKPGASVKVSCKASGYTFITYWIEWVRQRPGQGLEWMGDILPGSGSTNYNENFKGRAVFSADTSVSTAYLQISSLKAEDTAVYYCARSGYYGNSGFAYWGQGTLVTVSS
VL: DIQMTQSPSSLSASVGDRVTITCKSSQSLLDSGNQKNYLTWYQQKPGKAPKLLIYWASTREEGVPSRFSGSGSGTDFTLTISSLQPEDFATYYCQNDYTYPLTFGQGTKLEIK
notes: H2+L5; Full-length IgG
As to B17, the EC50 in test [1] was 1.12 nM; in test [4] it was 1.02 nM.

B18: hu10H10-39 (antibody, V domains shown)
VH: EVQLVQSGSELKKPGASVKVSCKASGYTFITYWIEWVKQRPGQGLEWMGDILPGSGWTNYNENFKGRATFSADTSVSTAYLQISSLKAEDTAVYYCARSGYYGNSGFAYWGQGTLVTVSS
VL: DIQMTQSPSSLSASVGDRVTITCKSSQSLLSSGNQKNYLTWYQQKPGKAPKLLIYWASTREEGVPSRFSGSGSGTDFTLTISSLQPEDFATYYCQNDYTYPLTFGQGTKLEIK
notes: H13+L3 (printed bu10H10-39); Full-length IgG; also called bu10H10-39
As to B18, the EC50 is 1.1 nM in test [1] and 0.42 nM in test [4].
